Assays:
HER2 [1] = biological target: T1, HER2 (human, UniProt P04626); experiment: BLI, 30C, E. coli-expressed
HER2 [2] = biological target: T1, HER2; experiment: BLI, 30C, ExpiCHO-expressed

B1: LH_S-C (antibody)
chain 1: EVQLVESGGGLVQPGGSLRLSVAASGFNIKDTYIHWVRQAPGKGLEWVARIYPTNGYTRYADSVKGRFTISADTSKNTAYLQMNSLRAEDTAVYYASRWGGDGFYCMDYWGQGTLVTVSS
chain 2: not shown
Q: B1 was tested. Which Kd (HER2 [1]) did it give?
A: 1.5 nM

Q: What about the Kd (HER2 [2]) of the same binder?
A: 0.28 nM
